Tests used:
[1] = target: T1, EBOV glycoprotein lacking the transmembrane domain (Kikwit) (Zaire ebolavirus, Kikwit-95, UniProt P87666); test: cell-based or functional assay
[2] = target: T1, EBOV glycoprotein lacking the …; test: ELISA; conditions: both partners purified

T1 sequence (P87666 33-650): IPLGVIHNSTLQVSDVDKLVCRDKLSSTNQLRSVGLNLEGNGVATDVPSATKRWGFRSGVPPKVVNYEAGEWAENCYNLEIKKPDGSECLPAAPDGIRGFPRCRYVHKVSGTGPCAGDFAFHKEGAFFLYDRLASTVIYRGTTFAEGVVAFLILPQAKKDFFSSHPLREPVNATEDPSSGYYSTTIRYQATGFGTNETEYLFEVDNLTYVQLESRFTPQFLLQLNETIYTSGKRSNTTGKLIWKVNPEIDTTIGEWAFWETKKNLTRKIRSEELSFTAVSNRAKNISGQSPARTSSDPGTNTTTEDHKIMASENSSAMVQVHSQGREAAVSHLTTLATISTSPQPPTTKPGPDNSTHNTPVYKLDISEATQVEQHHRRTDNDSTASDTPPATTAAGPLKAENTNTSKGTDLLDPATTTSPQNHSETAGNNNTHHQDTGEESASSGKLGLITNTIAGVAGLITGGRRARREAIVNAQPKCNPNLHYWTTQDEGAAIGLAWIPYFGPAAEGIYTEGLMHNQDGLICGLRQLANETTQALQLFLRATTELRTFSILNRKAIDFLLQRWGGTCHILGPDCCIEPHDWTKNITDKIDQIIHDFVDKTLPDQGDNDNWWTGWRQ

B1: KZ52 (human EBOV mAb, monospecific IgG1) (antibody, V domains shown)
VH: EVQLLESGGGLVKPGGSLRLSCAASGFTLINYRMNWVRQAPGKGLEWVSSISSSSSYIHYADSVKGRFTISRDNAENSLYLQMNSLRAEDTAVYYCVREGPRATGYSMADVFDIWGQGTMVTVSS
VL: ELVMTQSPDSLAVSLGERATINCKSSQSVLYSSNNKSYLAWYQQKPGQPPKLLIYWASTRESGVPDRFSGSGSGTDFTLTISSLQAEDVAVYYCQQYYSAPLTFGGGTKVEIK
notes: also called KZ52 IgG1; monospecific KZ52
IC50 of neutralisation of VSV-GP_(EBOV), infection of Vero cells (eGFP) [1]: 2.7 nM
EC50 [2]: 0.01 nM

Source: article PMC4725817 (Scientific Reports, 2016)
